In paper PMC12269619:

Tests used:
[1] = molecular target: Biotinylated junctional peptide NPDP19 (Plasmodium falciparum (clone 3D7)) (UniProt Q7K740); assay: BLI
PfCSPm [2] = assay: BLI; KD2, second site
PfCSPm [3] = assay: BLI; KD1

In the case of CIS43 mature, the Kd [1] is reported as 8.6 nM, the Kd (PfCSPm [2]) is reported as 1300 nM and the Kd (PfCSPm [3]) is reported as 45.2 nM.
